Test results published in patent publication US20140087995A1 (published 2014).
Numbered stars: 1 amine (or outer) side, 2 acyl side, 3 side chain; on linkers, the order of the positions; unused ones are H or OH. Bridge positions count the residues as written; N and C are the ends. Side chains are listed from the residue outwards. Ends that are not written are not given here. * marks the point of attachment. C20 diacid = O=C(O)CCCCCCCCCCCCCCCCCCC(=O)*; γGlu = O=C(O)[C@H](CCC(=O)[*:2])N[*:1]; AEEA = NCCOCCOCC(=O)O

T1: rat amylin receptor (rat calcitonin receptor + rat RAMP 3) (rat, UniProt P32214 25-516; Q9JJ73 23-147)
T1 construct: whole, on cells; Membranes of BHK tk'ts 13 cells transiently transfected with the rat calcitonin receptor and rat RAMP 3; also called rAmylin-R; rat amylin 3(a) receptor
T1 sequence (looked up) 1: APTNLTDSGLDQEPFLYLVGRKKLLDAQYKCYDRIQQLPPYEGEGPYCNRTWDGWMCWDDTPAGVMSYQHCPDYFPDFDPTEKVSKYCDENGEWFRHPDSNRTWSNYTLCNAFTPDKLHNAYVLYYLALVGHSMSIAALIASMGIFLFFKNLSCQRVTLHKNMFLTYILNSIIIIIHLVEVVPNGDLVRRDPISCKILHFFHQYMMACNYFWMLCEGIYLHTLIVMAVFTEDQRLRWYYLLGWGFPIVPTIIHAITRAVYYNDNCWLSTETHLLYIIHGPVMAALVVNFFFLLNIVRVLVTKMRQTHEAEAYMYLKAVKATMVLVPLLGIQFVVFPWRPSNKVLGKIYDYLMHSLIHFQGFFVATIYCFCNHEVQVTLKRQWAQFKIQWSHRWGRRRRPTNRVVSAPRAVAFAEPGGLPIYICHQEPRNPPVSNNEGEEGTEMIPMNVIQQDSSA
T1 sequence (looked up) 2: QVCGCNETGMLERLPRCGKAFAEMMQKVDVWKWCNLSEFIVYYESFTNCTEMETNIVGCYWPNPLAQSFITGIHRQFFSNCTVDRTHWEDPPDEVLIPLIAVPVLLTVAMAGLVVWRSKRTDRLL

T2: rat calcitonin receptor (rat, UniProt P32214 25-516)
T2 construct: whole, on cells; Membranes of BHK tk'ts 13 cells transiently transfected with the rat calcitonin receptor; also called rCTR; rat calcitonin (a) receptor
T2 sequence (looked up): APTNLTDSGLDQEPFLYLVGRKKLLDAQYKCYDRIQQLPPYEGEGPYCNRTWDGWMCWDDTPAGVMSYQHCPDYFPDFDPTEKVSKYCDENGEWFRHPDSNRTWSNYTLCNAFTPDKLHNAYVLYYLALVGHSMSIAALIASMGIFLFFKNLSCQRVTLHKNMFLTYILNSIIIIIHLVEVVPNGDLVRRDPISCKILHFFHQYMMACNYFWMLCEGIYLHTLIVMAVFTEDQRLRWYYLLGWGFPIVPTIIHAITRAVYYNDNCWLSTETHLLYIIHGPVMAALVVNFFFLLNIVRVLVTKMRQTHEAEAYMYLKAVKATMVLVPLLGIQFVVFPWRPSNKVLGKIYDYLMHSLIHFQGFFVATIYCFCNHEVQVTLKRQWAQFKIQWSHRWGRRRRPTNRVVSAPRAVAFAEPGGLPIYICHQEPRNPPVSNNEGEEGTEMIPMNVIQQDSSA

T3: human calcitonin receptor (human, UniProt P30988 25-474)
T3 sequence (looked up): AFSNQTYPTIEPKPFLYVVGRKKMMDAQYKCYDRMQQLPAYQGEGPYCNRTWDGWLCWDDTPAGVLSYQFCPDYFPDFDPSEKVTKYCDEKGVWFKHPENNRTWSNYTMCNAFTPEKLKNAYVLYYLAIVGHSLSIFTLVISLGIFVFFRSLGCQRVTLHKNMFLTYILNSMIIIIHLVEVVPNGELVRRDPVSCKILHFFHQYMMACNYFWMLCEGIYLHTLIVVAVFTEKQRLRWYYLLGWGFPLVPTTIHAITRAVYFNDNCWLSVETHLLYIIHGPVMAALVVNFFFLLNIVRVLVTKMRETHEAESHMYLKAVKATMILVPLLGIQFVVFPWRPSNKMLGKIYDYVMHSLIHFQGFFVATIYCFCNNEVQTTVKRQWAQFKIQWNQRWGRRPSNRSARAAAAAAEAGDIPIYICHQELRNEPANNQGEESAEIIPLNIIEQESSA

T4: human amylin receptor (amylin 3(a) receptor: human calcitonin receptor plus RAMP-3) (human, UniProt P30988 25-474; O60896 24-148, limits assumed)
T4 sequence (looked up) 1: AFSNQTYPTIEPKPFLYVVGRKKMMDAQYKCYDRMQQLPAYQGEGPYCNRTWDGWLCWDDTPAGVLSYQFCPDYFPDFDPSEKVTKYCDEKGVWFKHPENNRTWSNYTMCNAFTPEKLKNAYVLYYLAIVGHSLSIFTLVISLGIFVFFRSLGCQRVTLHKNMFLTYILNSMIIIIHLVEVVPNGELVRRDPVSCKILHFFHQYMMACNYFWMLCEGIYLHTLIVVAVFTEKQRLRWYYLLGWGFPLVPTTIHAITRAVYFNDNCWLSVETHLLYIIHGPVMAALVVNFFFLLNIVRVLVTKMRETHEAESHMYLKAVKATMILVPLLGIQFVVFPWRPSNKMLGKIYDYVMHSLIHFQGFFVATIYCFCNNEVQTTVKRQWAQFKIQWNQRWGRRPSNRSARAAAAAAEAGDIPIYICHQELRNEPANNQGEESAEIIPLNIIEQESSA
T4 sequence (looked up) 2: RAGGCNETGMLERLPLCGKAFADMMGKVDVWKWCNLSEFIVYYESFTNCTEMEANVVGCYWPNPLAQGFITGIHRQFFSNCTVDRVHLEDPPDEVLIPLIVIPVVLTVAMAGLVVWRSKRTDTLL


Assays:
[1] = biological target: T1, rat amylin receptor (rat calcitonin …); test: SPA competition vs 125I-rat amylin, membranes with rat CTR + rat RAMP3 (Assay VI)
Protocol: The binding assay was performed using scintillation proximity assay (SPA) beads (RPNQ0001) from PerkinElmer and cell membranes from the Amylin 3(a)/CRE-luc cells (as described in Assay (II)) were used. Membranes were prepared in the following way; the cells were rinsed with PBS and incubated with Versene for approximately 5 min before harvesting. The cells were flushed with PBS and the cell-suspension was centrifuged for 5 min at 1000 rpm. Cells were homogenized (ultrathurrax) in a buffer containing 20 mM Na-HEPES and 10 mM EDTA (pH 7.4) and centrifuged at 20.000 rpm for 15 min. The resulting pellet was resuspended, homogenized and centrifuged (20.000 rpm, 15 min) in a buffer containing 20 mM Na-HEPES and 0.1 mM EDTA (pH 7.4, buffer 2). The resulting pellet was resuspended in buffer 2 and protein concentration was measured (BCA protein Assay, Pierce). The homogenate was kept cold during the whole procedure. The membranes were kept at −80° C. until use. The assay was performed in a 384 well Optiplate (PerkinElmer) in a total volume of 40 ul. Membranes were mixed with SPA beads. Final concentration of membranes 35 ng/μL final and SPA beads was 0.05 mg/well. Test-compounds were dissolved in DMSO and further diluted in assay buffer (50 mM Hepes, pH 7.4, 1 mM CaCl2, 5 mM MgCl₂, 0.1% OA and 0.02% Tween20). […] The final mixture was incubated with shaking at 400 rpm for 120 min at 25° C. prior to centrifugation (1500 rpm, 10 min). Samples were analyzed on TopCounter™ (Packard). The IC₅₀ was calculated using (one site binding competition analysis) GraphPad Prism5 as a measure of receptor affinity.
Cells were grown in DMEM with 10% FBS and 1% Pen/Strep. Approximately 48 hours after transfection, the cells were harvested and membranes were prepared.

[2] = biological target: T2, rat calcitonin receptor; test: SPA competition vs 125I-calcitonin, membranes with rat CTR (Assay VIII)
[3] = biological target: T3, human calcitonin receptor; test: cell-based or functional assay
[4] = biological target: T4, human amylin receptor (amylin 3(a) …); test: cell-based or functional assay

Row | IC50 [1] | IC50 [2] | Ratio hCT/hAmylin funct. (hCTR EC50 against hAmylin-R EC50) [3] | hCTR funct. EC50 [3] | hAmylin-R funct. EC50 [4] | Binder
1 | 0.383 nM | 38 nM | – | – | – | K([AEEA-γGlu-C20 diacid])CNTATCATQRLANFLRHSSPNFGAIPSSTNVGSRTY-NH2 (disulfide 2-7; N-terminus assumed; SMILES CC[C@H](C)[C@H](NC(=O)[C@H](C)NC(=O)CNC(=O)[C@H](Cc1ccccc1)NC(=O)[C@H](CC(N)=O)NC(=O)[C@@H]1CCCN1C(=O)[C@H](CO)NC(=O)[C@H](CO)NC(=O)[C@H](Cc1c[nH]cn1)NC(=O)[C@H](CCCNC(=N)N)NC(=O)[C@H](CC(C)C)NC(=O)[C@H](Cc1ccccc1)NC(=O)[C@H](CC(N)=O)NC(=O)[C@H](C)NC(=O)[C@H](CC(C)C)NC(=O)[C@H](CCCNC(=N)N)NC(=O)[C@H](CCC(N)=O)NC(=O)[C@@H](NC(=O)[C@H](C)NC(=O)[C@@H]1CSSC[C@H](NC(=O)[C@@H](N)CCCCNC(=O)COCCOCCNC(=O)CC[C@H](NC(=O)CCCCCCCCCCCCCCCCCCC(=O)O)C(=O)O)C(=O)N[C@@H](CC(N)=O)C(=O)N[C@@H]([C@@H](C)O)C(=O)N[C@@H](C)C(=O)N[C@@H]([C@@H](C)O)C(=O)N1)[C@@H](C)O)C(=O)N1CCC[C@H]1C(=O)N[C@@H](CO)C(=O)N[C@@H](CO)C(=O)N[C@H](C(=O)N[C@@H](CC(N)=O)C(=O)N[C@H](C(=O)NCC(=O)N[C@@H](CO)C(=O)N[C@@H](CCCNC(=N)N)C(=O)N[C@H](C(=O)N[C@@H](Cc1ccc(O)cc1)C(N)=O)[C@@H](C)O)C(C)C)[C@@H](C)O, modifications are with respect to human amylin; also called compound 38)
2 | – | – | 17 | 10.1 nM | 594 pM | K([AEEA-γGlu-C20 diacid])RCNTATCATQRLANFLRHSSPNFGAIPSSTNVGSHTY-NH2 (disulfide 3-8; N-terminus assumed; SMILES CC[C@H](C)[C@H](NC(=O)[C@H](C)NC(=O)CNC(=O)[C@H](Cc1ccccc1)NC(=O)[C@H](CC(N)=O)NC(=O)[C@@H]1CCCN1C(=O)[C@H](CO)NC(=O)[C@H](CO)NC(=O)[C@H](Cc1c[nH]cn1)NC(=O)[C@H](CCCNC(=N)N)NC(=O)[C@H](CC(C)C)NC(=O)[C@H](Cc1ccccc1)NC(=O)[C@H](CC(N)=O)NC(=O)[C@H](C)NC(=O)[C@H](CC(C)C)NC(=O)[C@H](CCCNC(=N)N)NC(=O)[C@H](CCC(N)=O)NC(=O)[C@@H](NC(=O)[C@H](C)NC(=O)[C@@H]1CSSC[C@H](NC(=O)[C@H](CCCNC(=N)N)NC(=O)[C@@H](N)CCCCNC(=O)COCCOCCNC(=O)CC[C@H](NC(=O)CCCCCCCCCCCCCCCCCCC(=O)O)C(=O)O)C(=O)N[C@@H](CC(N)=O)C(=O)N[C@@H]([C@@H](C)O)C(=O)N[C@@H](C)C(=O)N[C@@H]([C@@H](C)O)C(=O)N1)[C@@H](C)O)C(=O)N1CCC[C@H]1C(=O)N[C@@H](CO)C(=O)N[C@@H](CO)C(=O)N[C@H](C(=O)N[C@@H](CC(N)=O)C(=O)N[C@H](C(=O)NCC(=O)N[C@@H](CO)C(=O)N[C@@H](Cc1c[nH]cn1)C(=O)N[C@H](C(=O)N[C@@H](Cc1ccc(O)cc1)C(N)=O)[C@@H](C)O)C(C)C)[C@@H](C)O, also called compound 45)
